Test results as given in publication PMC5061333.

Target: ASC (UniProt Q9ULZ3)
Test: EMSA
Details: EMSA: 100 mM Tris, 500 mM NaCl, 10 mM DTT, pH 7, 15°C 30 min; 3-5 μg DNA, 0.2-0.65 μg recombinant protein or 5 μg nuclear extract; 6% native PAGE

ASC, sequence (Q9ULZ3 whole entry): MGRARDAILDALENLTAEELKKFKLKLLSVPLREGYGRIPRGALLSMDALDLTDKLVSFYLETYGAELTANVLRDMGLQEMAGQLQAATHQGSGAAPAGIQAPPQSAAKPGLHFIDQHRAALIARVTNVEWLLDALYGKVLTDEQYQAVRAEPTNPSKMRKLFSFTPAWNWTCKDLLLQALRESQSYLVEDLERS

## ATTTATATAGCTTCTCAGCCTCGAATGTGGAAATAGGTGACTCATTTGAGTGTTTTCTTTCTTTTTAGAGTCTACAGAACTTTGAAAGTATGTGTTATTTTTCATTAACTAAAACGAGGAAGTATTACATCGTTATTGGCAGGAAGCACACAATGTATTTGTCTTTCAAAGGATTTTTTTTTCTGTCTGCTGCATAAATTGACTCCATGAGAAACCTCATTTTTTTGCCAAAGTCAAATGACTGCTCTCATAGGTATCA (double strand) [MMP7 promoter P1]
  binding: binds
